Biological target: T1, RASSF2 (expression construct precipitated with anti-Flag) (UniProt P50749 1-326)
T1 construct: RASSF2; The methods describe no Flag-tagged construct; That RASSF2 carried the Flag tag is surmised, because C1QBP is the GFP-tagged partner and the blot used anti-Flag and anti-GFP; source: HEK-293T, transfected, in lysate
T1 sequence (looked up): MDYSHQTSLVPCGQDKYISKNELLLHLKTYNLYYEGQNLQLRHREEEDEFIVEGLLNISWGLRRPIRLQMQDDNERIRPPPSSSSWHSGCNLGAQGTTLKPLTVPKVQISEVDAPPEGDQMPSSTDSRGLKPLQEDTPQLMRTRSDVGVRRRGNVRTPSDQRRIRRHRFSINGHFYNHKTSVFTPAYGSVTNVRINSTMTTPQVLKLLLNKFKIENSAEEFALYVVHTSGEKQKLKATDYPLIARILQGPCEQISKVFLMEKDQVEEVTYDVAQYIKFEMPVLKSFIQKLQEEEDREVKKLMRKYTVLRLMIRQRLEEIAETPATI
Experiment: co-IP; HEK-293T co-transfected with RASSF2, C1QBP and with or without activated K-Ras for 24 hours; lysates immunoprecipitated with anti-Flag, blotted with anti-Flag and anti-GFP
Settings: partners not purified

B1: GFP-C1QBP (natural protein, UniProt Q07021 74-282, looked up)
chain: LHTDGDKAFVDFLSDEIKEERKIQKHKTLPKMSGGWELELNGTEAKLVRKVAGEKITVTFNINNSIPPTFDGEEEPSQGQKVEEQEPELTSTPNFVVEVIKNDDGKKALVLDCHYPEDEVGQEDEAESDIFSIREVSFQSTGESEWKDTNYTLNTDSLDWALYDHLMDFLADRGVDNTFADELVELSTALEHQEYITFLEDLKSFVKSQ
notes: C1QBP; cDNA from GeneCopoeia, PCR amplified and cloned into pEGFP-C1; source: HEK-293T, transfected, in lysate
fold change of the co-precipitate with activated Ras against without: ~2 fold

From article PMC4810121, “Proteomics Analysis Reveals Novel RASSF2 Interaction Partners” (Cancers, 2016)
